In patent CN111333730A (NANJING RONGJIEKANG BIOTECHNOLOGY CO LTD, dated 2020) one finds EC50 data, which are given here for one molecule.

For the assay, the target named is T1, 人源EpCAM重组胞外结构域蛋白 (human, UniProt P16422 24-265).
T1 construct: range 24-265; Made in-house in 293F cells from pcDNA3.4; coated on ELISA plates; also called EpCAM重组蛋白; 人源重组EpCAM
T1 sequence: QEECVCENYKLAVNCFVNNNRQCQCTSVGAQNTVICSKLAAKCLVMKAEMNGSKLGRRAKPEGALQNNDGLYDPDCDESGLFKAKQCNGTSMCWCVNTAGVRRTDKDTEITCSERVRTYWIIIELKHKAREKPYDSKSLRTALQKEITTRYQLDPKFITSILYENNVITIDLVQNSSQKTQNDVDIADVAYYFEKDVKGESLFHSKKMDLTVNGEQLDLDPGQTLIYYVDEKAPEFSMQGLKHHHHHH
As to the kind of experiment: ELISA, coated human recombinant EpCAM, anti-HA-HRP detection. In general terms: ELISA stands for enzyme-linked immunosorbent assay.

B1: 单域抗体 4C9 (VHH)
VHH: ESGGGSVQAGGSLRLSCAASEYTWSTTCMGWFRQAPGKEREGVAALYTRRGSTYYADSVKGRFTISRDNAENTVYLQMNSLKPEDTAMYYCASGPSTDFSCDYRRSNGYNYWGQGTQVTVSS
Turning to B1, the EC50 was determined as 1.96 nM.

Broadly, the EC50 is the concentration needed to bring the measured effect to its halfway point.
